Experimental data as given in patent US20240301052A1 (LANOVA MEDICINES DEVELOPMENT, published 2024).
Where two headings read alike, the source gives them in different places.

T1: human SLC34A2 (human, UniProt O95436 1-690)
T1 sequence (looked up): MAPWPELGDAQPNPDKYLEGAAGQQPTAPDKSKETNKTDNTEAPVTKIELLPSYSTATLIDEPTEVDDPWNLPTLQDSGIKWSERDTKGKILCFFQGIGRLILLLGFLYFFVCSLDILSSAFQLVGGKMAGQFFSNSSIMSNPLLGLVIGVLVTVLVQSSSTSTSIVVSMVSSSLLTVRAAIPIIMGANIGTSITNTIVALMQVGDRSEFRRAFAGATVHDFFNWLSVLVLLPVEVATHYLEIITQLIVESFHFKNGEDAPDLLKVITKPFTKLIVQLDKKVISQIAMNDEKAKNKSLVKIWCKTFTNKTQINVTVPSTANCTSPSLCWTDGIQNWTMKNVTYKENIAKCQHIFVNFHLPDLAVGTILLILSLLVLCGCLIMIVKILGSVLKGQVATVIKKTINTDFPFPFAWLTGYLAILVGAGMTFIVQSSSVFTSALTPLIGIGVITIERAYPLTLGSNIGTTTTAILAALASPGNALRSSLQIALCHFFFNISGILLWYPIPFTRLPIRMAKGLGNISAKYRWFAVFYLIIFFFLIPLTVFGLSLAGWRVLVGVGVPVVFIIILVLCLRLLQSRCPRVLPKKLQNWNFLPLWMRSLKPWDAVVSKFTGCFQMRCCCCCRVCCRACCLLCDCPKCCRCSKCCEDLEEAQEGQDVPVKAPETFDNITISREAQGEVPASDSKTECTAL

T2: Rhesus SLC34A2 (Rhesus, UniProt F7HDA3 1-690)
T2 construct: whole, on cells
T2 sequence: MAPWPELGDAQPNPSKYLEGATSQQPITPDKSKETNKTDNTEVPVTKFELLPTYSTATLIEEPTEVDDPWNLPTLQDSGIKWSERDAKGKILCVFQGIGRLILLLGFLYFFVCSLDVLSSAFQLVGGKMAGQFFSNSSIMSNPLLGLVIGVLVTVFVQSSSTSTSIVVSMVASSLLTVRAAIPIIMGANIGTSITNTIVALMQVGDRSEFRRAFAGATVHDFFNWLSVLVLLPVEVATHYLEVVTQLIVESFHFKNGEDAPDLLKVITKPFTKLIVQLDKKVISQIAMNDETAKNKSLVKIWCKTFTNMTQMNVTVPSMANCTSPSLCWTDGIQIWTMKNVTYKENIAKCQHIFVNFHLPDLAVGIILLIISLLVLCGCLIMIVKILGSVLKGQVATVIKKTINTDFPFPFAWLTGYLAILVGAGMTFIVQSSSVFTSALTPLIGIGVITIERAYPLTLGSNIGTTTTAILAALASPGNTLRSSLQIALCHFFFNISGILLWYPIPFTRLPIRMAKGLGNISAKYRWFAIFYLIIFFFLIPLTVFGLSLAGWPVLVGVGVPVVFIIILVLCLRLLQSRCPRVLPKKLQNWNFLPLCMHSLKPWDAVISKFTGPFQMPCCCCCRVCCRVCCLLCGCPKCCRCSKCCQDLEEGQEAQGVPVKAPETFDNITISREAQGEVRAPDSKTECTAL

B1: XMT-1536 (antibody, INN chains, looked up, V domains shown)
VH: QVQLVQSGAEVVKPGASVKMSCKASGYTFTGYNIHWVKQAPGQGLEWIGAIYPGNGDTSYKQKFRGRATLTADTSTSTVYMELSSLRSEDSAVYYCARGETARATFAYWGQGTLVTVSS
VL: DIQMTQSPSSLSASVGDRVTITCSASQDIGNFLNWYQQKPGKTVKVLIYYTSSLYSGVPSRFSGSGSGTDYTLTISSLQPEDFATYYCQQYSKLPLTFGQGTKLELK
modifications: rilsodotin auristatin payload
B2: 62G10E4G8.p3.z15 hIgG1 (antibody, V domains shown)
VH: QVQLVQSGAEVVKPGASVKMSCKASGYTFPSYITHWVKQAPGQGLEWIGAIYPGNADTSYIQKFKGRATLTADKSTSTAYMELSSLRSEDTAVYYCARGTYGTSAWFTYWGQGTLVTVSS
VL: EIVLTQSPATLSVSPGERATLSCRARQNIGNNLYWYQQKPGQSPRLLIKYASQSISGIPSRFSGSGSGTDFTLTISSLQSEDFAVYFCQQSFSWPLTFGQGTKLEIK
notes: humanized hIgG1
B3: xi63A11D5B4 hIgG1 (antibody, V domains shown)
VH: QVQLQQPGAELVKPGASVKMSCRTSGYTFITYNMHWVKQTPGQGREWIGAIYPGNGDTSYNQKFKGKATLTADKSSSTAYMQLNSLTSEDSAVYYCSISTIITTGAVDYWGQGTSVTVAS
VL: DIVMTQSHKFMSTSVGDRVSITCKASQDVGTAVAWYQQKAGQSPKLLIYWTSTRHTGVPDRFTGSGSGTDFTLIIRSLQSEDLADYFCQQYSRIPLTFGSGTKLEIK
notes: chimeric, hIgG1
B4: 63A11D5B4.p1.z9 hIgG1 (antibody, V domains shown)
VH: QVQLVQSGAEVVKPGASVKMSCKTSGYTFITYNMHWVRQAPGQGLEWIGAIYPGSGDTSYNQKFKGRVTLTADKSTSTAYMELSSLRSEDTAVYYCSISTIITTGAVDYWGQGTLVTVSS
VL: DIQMTQSPSSLSASVGDRVTITCKASQDVGTAVAWYQQKPGKVPKLLIYWTSTRHTGVPSRFSGSGSGTDFTLTISSLQPEDVATYYCQQYSRIPLTFGGGTKVEIK
notes: humanized hIgG1
B5: xi91C9F1 hIgG1 (antibody, V domains shown)
VH: EVQLQQSGPELVKPGTSVKISCKTSGFFFTEYIIHWVKQSHGRSLEWIGGIIPNNGVTNYKQNFRGKAALTADKSSNTAYMELRSLTSEDSAVYYCARWRNGYYSAMDSWGQGTSVTVSS
VL: DIVVTQSHKFMSTSLGDRVSITCTASQDVGTAVAWYQQKPGHSPKLLIYWASTRHTGVPERFTGSGSGTDFTLTITNVQSEDLADYFCQQYRTSPLTFGVGTKLELK
notes: chimeric, hIgG1
B6: xi30H9B8F9 hIgG1 (antibody, V domains shown)
VH: QVQLQQPGAELVKPGASVKMSCKTSGYTFTTNNMHWVKQTPGQGLEWIGAIYPGNGATAYNQKFKGKATLTADKSSSTAYMQLSSLTSEASAVYYCARGMYGHGAMDYWGQGTSVIVSS
VL: DIVMTQSHKFMSRSVGDRVRITCKASQDVGTAVAWYQQKPGQSPKLLIYWATTRHSGVPDRFTGSGSGTDFIFTISNVQSEDLADYFCQQYSSNPLTFGAGTKLELK
notes: chimeric, hIgG1
B7: xi62G10E4G8 hIgG1 (antibody, V domains shown)
VH: QVQLQQSGAEVVKPGASVKMSCKASGYTFPSYITHWVKQTPGQGLEWIGAIYPGNGDTSYIQKFKGKATLTADKSSSTAYMQLSSLTSEDSAVYYCARGTYGTSAWFTYWGQGTLVTVSA
VL: DIVLTQSPATLSVTPGDSVSLSCRARQNIGNNLYWYQQKSHESPRLLIKYASQSISGIPSRFSGSGSGTDFTLTINSVETEDFGVYFCQQSFSWPLTFGAGTKLELK
notes: chimeric, hIgG1

Assays:
[1] = biological target: T1, human SLC34A2; assay: FACS, MDAH2774 cells
[2] = biological target: T1, human SLC34A2; assay: FACS, RMG-1 cells
[3] = biological target: T1, human SLC34A2; assay: FACS, HEK293/human SLC34A2 cells
How it was run: (§1)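 Flow cytometric read-out of bound humanized antibody, detected with a fluorescent conjugated secondary antibody. Cells (transfected HEK293/H_SLC34A2, OVCAR3, RMG-1) were exposed to antibody for 60 minutes at 4° C. before washing and 30-minute secondary staining at 4° C.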

[4] = biological target: T1, human SLC34A2; assay: cell-based or functional assay
[5] = biological target: T2, Rhesus SLC34A2; assay: FACS, HEK293/Rhesus SLC34A2 cells
[6] = biological target: T2, Rhesus SLC34A2; assay: FACS, HEK293/Rhesus SLC34A2 cells; remark: listed apart in the source
[7] = biological target: T1, human SLC34A2; assay: FACS, OVCAR3 cells
How it was run: as §1

[8] = biological target: T1, human SLC34A2; assay: FACS, RMG-1 cells; remark: listed apart in the source
How it was run: as §1

[9] = biological target: T1, human SLC34A2; assay: cell-based or functional assay; remark: listed apart in the source
[10] = biological target: T2, Rhesus SLC34A2; assay: FACS, HEK293/Rhesus SLC34A2 cells; remark: listed apart in the source
[11] = biological target: T2, Rhesus SLC34A2; assay: FACS, HEK293/Rhesus SLC34A2 cells; remark: listed apart in the source
Description: (§2) Briefly, the Rhesus SLC34A2 expressing HEK293 engineering cells (HEK293/Rhesus_SLC34A2) were incubated with chimeric Abs (from 200 nM, 4 folds dilution, 8 points). After incubation at 4° C. for 60 minutes, the cells were washed with FACS buffer twice, then stained with fluorescent conjugated secondary antibody at 4° C. for 30 minutes. After that the cells were washed twice and analyzed by flow cytometry.

[12] = biological target: T1, human SLC34A2; assay: FACS, HEK293/human SLC34A2 cells; remark: listed apart in the source
Description: as §2, with “OVCAR3 cells or HEK293 cells expressing human” for “the Rhesus”, “SLC34A2” for “SLC34A2 expressing HEK293 engineering cells (HEK293/Rhesus_SLC34A2)”, “antibodies” for “Abs”

Row | Binder | EC50 [1] [nM] | EC50 [3] [nM] | Top [3] [MFI] | ADCC reporter EC50 [4] [nM] | ADCC reporter Top (MFI) [4] [MFI] | EC50 [6] [nM] | Top (MFI) [6] [MFI] | EC50 [7] [nM] | EC50 [8] [nM] | Top [8] [MFI] | EC50 [10] [nM] | Top (MFI) [10] [MFI] | EC50 [11] [nM] | Top (MFI) [11] [MFI] | EC50 [12] [nM] | Top (MFI) [12] [MFI] | other results
1 | B1 | 7.09 | – | – | – | – | – | – | – | – | – | – | – | – | – | – | – | –
2 | B2 | 2.82 | 2.34 | 33600 | 5.39 | 123000 | 1.4 | 14400 | 3.76 | 3.69 | 10800 | – | – | – | – | – | – | EC50 [2]: 3.7 nM; EC50 [5]: 1.4 nM; ADCC-HEK293 [9]: 1.55 nM; ADCC-OVCAR3 [9]: 0.56 nM; Cytotoxic Effect - MDAH-2774 [9]: 0.24 nM; Cytotoxic Effect - OVCAR3 [9]: 0.025 nM
3 | B3 | – | 5.21 | 35600 | – | – | 2.3 | 15200 | 10.5 | 14.4 | 11200 | 4.6 | 45500 | 2.56 | 15100 | 1.5 | 103000 | –
4 | B4 | 15.1 | 5.49 | 36800 | 1.69 | 116000 | 1.6 | 11800 | 9.12 | 28.3 | 12200 | – | – | – | – | – | – | EC50 [2]: 28.3 nM; EC50 [5]: 1.6 nM; ADCC-HEK293 [9]: 0.52 nM; ADCC-OVCAR3 [9]: 0.3 nM; Cytotoxic Effect - MDAH-2774 [9]: 1.5 nM; Cytotoxic Effect - OVCAR3 [9]: 0.06 nM
5 | B5 | – | 1.77 | 32100 | 1.96 | 133000 | 1.2 | 11400 | 2.5 | 1.76 | 9730 | 3.9 | 15500 | 0.95 | 12200 | 1.06 | 44800 | Top [7]: 21000 MFI
6 | B6 | – | 1.63 | 40800 | 1.26 | 109000 | 0.9 | 17400 | 0.74 | 1.19 | 11500 | 1.9 | 47900 | 1.26 | 17000 | 0.96 | 107000 | –
7 | B7 | – | 4.26 | 32700 | 4.56 | 101000 | 1.8 | 13300 | 3.73 | 7.97 | 11300 | 3.7 | 39100 | 2.53 | 12000 | 1.28 | 101000 | –
